Legend:
[1] = target: TraH expressed in E. faecalis JH2-2 (pEU327-RBS-traH) (Enterococcus faecalis (plasmid pIP501)); test: cross-linking; in vivo, E. faecalis JH2-2 (pEU327-RBS-traH) cells in early log phase, formaldehyde 0.5–2% in PBS for 10 minutes; SDS-PAGE and western blot
[2] = target: TraH, full length, purified and reconstituted in DDM micelles (Enterococcus faecalis (plasmid pIP501)); test: SEC; analytical SEC of full length TraH reconstituted in DDM micelles; 70 kDa taken for the micelle; apparent molecular weight
[3] = target: TraH, full length, purified and reconstituted in DDM micelles (Enterococcus faecalis (plasmid pIP501)); test: native gel or EMSA; semi-native PAGE: sample buffer without SDS and reducing agent, 4 °C, 12.5% native gels, running buffer with 0.1% SDS; full-length TraH in DDM micelles; western blot
[4] = target: TraH, full length, purified and reconstituted in DDM micelles (Enterococcus faecalis (plasmid pIP501)); test: cross-linking; in vitro, 8 μg purified protein, 300 mM NaCl, 100 mM bicine, 1 mM DTT, glutaraldehyde 0–1% (v/v), 15 min at RT; full-length TraH kept in DDM micelles; SDS-PAGE and western blot

Substance: TraH expressed in E. faecalis JH2-2 (pEU327-RBS-traH) (natural protein)
- stoichiometry N [1]: 2

Substance: TraH, full length, purified and reconstituted in DDM micelles (natural protein)
- stoichiometry N [2]: 4
- stoichiometry N [3]: 2
- stoichiometry N [4]: 2

From paper PMC4840375
